Values quoted from earlier work, collected in PMC5729051.

Target: amyloid-beta oligomer (Homo sapiens) (UniProt P05067)

In the case of “Cellular Prion Protein (PrPC) (from UniProt P04156)”, the Kd is given as 0.4 nM.
